Measurements as given in article PMC10937199 (ESMO Open, 2024).

What was measured:
Assay in all cases: Safety
Type in all cases: in vivo, human
[1] = test system: patients with advanced solid tumors; settings: Part FE
[2] = test system: patients with advanced solid tumors; settings: Part B
[3] = test system: patients with advanced solid tumors; settings: Part A
[4] = peposertib 100 mg b.i.d., all grade
[5] = peposertib 100 mg b.i.d., grade ≥3
[6] = peposertib 200 mg b.i.d., all grade
[7] = peposertib 200 mg b.i.d., grade ≥3
[8] = peposertib 100 mg q.d., all grade
[9] = peposertib 100 mg q.d., grade ≥3
[10] = peposertib 150 mg q.d., all grade
[11] = peposertib 150 mg q.d., grade ≥3
[12] = peposertib 200 mg q.d., all grade
[13] = peposertib 200 mg q.d., grade ≥3
[14] = peposertib 250 mg q.d., all grade
[15] = peposertib 250 mg q.d., grade ≥3
[16] = peposertib 250 mg b.i.d., all grade
[17] = peposertib 250 mg b.i.d., grade ≥3
[18] = peposertib 300 mg b.i.d., all grade
[19] = peposertib 300 mg b.i.d., grade ≥3
[20] = peposertib 400 mg b.i.d., all grade
[21] = peposertib 400 mg b.i.d., grade ≥3

## Avelumab: anti-PD-L1 antibody, immune checkpoint inhibitor, 800 mg Q2W intravenous infusion [reference compound]
[1]; all dose levels
  Avelumab-related TEAE: diarrhea: 3 (33.3%)
  Avelumab-related TEAE: fatigue: 3 (33.3%)
[1]; [4]
  Serious TEAE, avelumab related: 1 (25.0) n (%)
  TEAE, avelumab related: 3 (75.0) n (%)
[1]; [5]
  Serious TEAE, avelumab related: 1 (25.0) n (%)
  TEAE, avelumab related: 1 (25.0) n (%)
[1]; [6]
  Serious TEAE, avelumab related: 2 (40.0) n (%)
  TEAE, avelumab related: 5 (100.0) n (%)
[1]; [7]
  Serious TEAE, avelumab related: 2 (40.0) n (%)
  TEAE, avelumab related: 3 (60.0) n (%)
[2]; all dose levels
  Avelumab-related TEAE: IRR: 8 (42.1%)
  Avelumab-related TEAE: fatigue: 3 (15.8%)
[2]; [8]
  Serious TEAE, avelumab related: 1 (33.3) n (%)
  TEAE, avelumab related: 3 (100.0) n (%)
[2]; [9]
  Serious TEAE, avelumab related: 1 (33.3) n (%)
  TEAE, avelumab related: 1 (33.3) n (%)
[2]; [10]
  Serious TEAE, avelumab related: 1 (33.3) n (%)
  TEAE, avelumab related: 3 (100.0) n (%)
[2]; [11]
  Serious TEAE, avelumab related: 1 (33.3) n (%)
  TEAE, avelumab related: 1 (33.3) n (%)
[2]; peposertib 200 mg q.d.
  Avelumab-related pneumonitis: 25.0%
[2]; [12]
  Serious TEAE, avelumab related: 0 n (%)
  TEAE, avelumab related: 3 (75.0) n (%)
[2]; [13]
  Serious TEAE, avelumab related: 0 n (%)
  TEAE, avelumab related: 0 n (%)
[2]; peposertib 250 mg q.d.
  Avelumab-related pneumonitis: 11.1%
[2]; [14]
  Serious TEAE, avelumab related: 2 (22.2) n (%)
  TEAE, avelumab related: 7 (77.8) n (%)
[2]; [15]
  Serious TEAE, avelumab related: 2 (22.2) n (%)
  TEAE, avelumab related: 3 (33.3) n (%)
[3]; all dose levels
  Avelumab-related TEAE: diarrhea: 4 (13.8%)
  Avelumab-related TEAE: fatigue: 5 (17.2%)
  Avelumab-related TEAE: rash: 5 (17.2%)
  Avelumab-related TEAE: vomiting: 4 (13.8%)
[3]; [4]
  Serious TEAE, avelumab related: 0 n (%)
  TEAE, avelumab related: 2 (50.0) n (%)
[3]; [5]
  Serious TEAE, avelumab related: 0 n (%)
  TEAE, avelumab related: 0 n (%)
[3]; peposertib 200 mg b.i.d.
  Avelumab-related pneumonitis: 9.1%
[3]; [6]
  Serious TEAE, avelumab related: 3 (27.3) n (%)
  TEAE, avelumab related: 8 (72.7) n (%)
[3]; [7]
  Serious TEAE, avelumab related: 3 (27.3) n (%)
  TEAE, avelumab related: 3 (27.3) n (%)
[3]; peposertib 250 mg b.i.d.
  Avelumab-related pneumonitis: 25.0%
[3]; [16]
  Serious TEAE, avelumab related: 3 (75.0) n (%)
  TEAE, avelumab related: 3 (75.0) n (%)
[3]; [17]
  Serious TEAE, avelumab related: 3 (75.0) n (%)
  TEAE, avelumab related: 3 (75.0) n (%)
[3]; peposertib 300 mg b.i.d.
  Avelumab-related pneumonitis: 16.7%
[3]; [18]
  Serious TEAE, avelumab related: 1 (16.7) n (%)
  TEAE, avelumab related: 3 (50.0) n (%)
[3]; [19]
  Serious TEAE, avelumab related: 1 (16.7) n (%)
  TEAE, avelumab related: 2 (33.3) n (%)
[3]; [20]
  Serious TEAE, avelumab related: 3 (75.0) n (%)
  TEAE, avelumab related: 4 (100.0) n (%)
[3]; [21]
  Serious TEAE, avelumab related: 3 (75.0) n (%)
  TEAE, avelumab related: 4 (100.0) n (%)
